Assay results published in article PMC3865438.

Molecular target: cytochrome b6f complex from Chlamydomonas reinhardtii (Chlamydomonas reinhardtii) (UniProt Q00471)
Test: crystal structure

For “cytochrome b6f complex from Chlamydomonas reinhardtii (from UniProt Q00471 1-215; P49728 30-206; P23230 1-160; P23577 32-317)”, the stoichiometry N was 2.
